Experimental data reported in patent publication US20080038248A1 (published 2008).

T1: soluble recombinant extracellular domain of ULBP1, 6-Histidine N-terminal fusion (human, UniProt Q9BZM6 26-216, limits assumed)
T1 construct: extracellular domain
T1 sequence: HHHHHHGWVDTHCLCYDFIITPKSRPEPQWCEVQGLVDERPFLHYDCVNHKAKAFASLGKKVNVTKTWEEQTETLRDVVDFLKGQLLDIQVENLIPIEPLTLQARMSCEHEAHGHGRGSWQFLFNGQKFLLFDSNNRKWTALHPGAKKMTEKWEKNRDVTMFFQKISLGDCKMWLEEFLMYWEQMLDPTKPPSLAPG

T2: soluble recombinant extracellular domain of RAET1E, 6-Histidine N-terminal fusion (human, UniProt Q8TD07 31-225)
T2 construct: extracellular domain
T2 sequence: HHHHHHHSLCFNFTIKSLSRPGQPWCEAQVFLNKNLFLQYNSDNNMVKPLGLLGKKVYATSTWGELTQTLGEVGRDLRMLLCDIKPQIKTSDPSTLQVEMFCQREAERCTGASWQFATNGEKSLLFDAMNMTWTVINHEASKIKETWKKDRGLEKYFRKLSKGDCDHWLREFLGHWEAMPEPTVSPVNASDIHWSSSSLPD

T3: soluble recombinant extracellular domain of ULBP3, 6-Histidine N-terminal fusion (human, UniProt Q9BZM4 30-217, limits assumed)
T3 construct: extracellular domain
T3 sequence: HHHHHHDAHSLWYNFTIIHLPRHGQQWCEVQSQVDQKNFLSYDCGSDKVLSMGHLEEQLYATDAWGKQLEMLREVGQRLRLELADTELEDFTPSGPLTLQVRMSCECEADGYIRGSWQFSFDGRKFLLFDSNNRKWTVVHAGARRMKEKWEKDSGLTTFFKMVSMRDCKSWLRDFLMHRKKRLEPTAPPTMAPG

T4: soluble recombinant extracellular domain of ULBP2, 6-Histidine N-terminal fusion (human, UniProt Q9BZM5 26-217, limits assumed)
T4 construct: extracellular domain
T4 sequence: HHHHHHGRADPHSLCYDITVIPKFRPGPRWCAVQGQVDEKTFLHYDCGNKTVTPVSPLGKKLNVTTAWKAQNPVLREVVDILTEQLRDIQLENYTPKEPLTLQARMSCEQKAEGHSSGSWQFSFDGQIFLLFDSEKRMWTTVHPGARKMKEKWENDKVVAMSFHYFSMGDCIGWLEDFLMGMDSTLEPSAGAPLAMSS

B1: UL16 Fc fusion (Fc fusion)
chain: VDLGSKSSNSTCRLNVTELASIHPGETWTLHGMCISICYYENVTEDEIIGVAFTWQHNESVVDLWLYQNDTVIRNFSDITTNILQDGLKMRTVPVTKLYTSRMVTNLTVGRYDCLRCENGTTKIIERLYVRLGSLYPRPPGSGLAKHPSVSADEELSA
notes: not shown: human IgG1 CH2-CH3, C-terminal to UL16 (vector SignalpIgplus)
B2: soluble recombinant extracellular domain of RAET1G, 6-Histidine N-terminal fusion (ligand, human)
chain: HHHHHHGLADPHSLCYDITVIPKFRPGPRWCAVQGQVDEKTFLHYDCGSKTVTPVSPLGKKLNVTTAWKAQNPVLREVVDILTEQLLDIQLENYIPKEPLTLQARMSCEQKAEGHGSGSWQLSFDGQIFLLFDSENRMWTTVHPGARKMKEKWENDKDMTMSFHYISMGDCTGWLEDFLMGMDSTLEPSAGAPPTMSSGTAQPR
notes: extracellular domain; also called 6-His tagged recombinant RAET1G
B3: NKG2D-Fc fusion protein (Fc fusion, human, UniProt P26718 73-216, looked up)
chain: IWSAVFLNSLFNQEVQIPLTESYCGPCPKNWICYKNNCYQFFDESKNWYESQASCMSQNASLLKVYSKEDQDLLKLVKSYHWMGLVHIPTNGSWQWEDGSILSPNLLTIIEMQKGDCALYASSFKGYIENCSTPNTYICMQRTV
notes: Produced in 293T cells, purified on Protein A. 'The fusion was C-terminal to human IgG1 hinge-CH2-CH3 domains'; also called recombinant soluble Fc fusion protein of NKG2D; not shown: human IgG1 hinge-CH2-CH3 domains, N-terminal to NKG2D (in pcDNA3.0)

Tests used:
[1] = target: T1, soluble recombinant extracellular …; test: SPR (BIACore 2000), UL16-Fc captured on anti-human IgG, ULBP1 as analyte; derived from joint fit
[2] = target: B2; test: SPR (BIACore 2000), UL16-Fc captured on anti-human IgG, RAET1G as analyte; derived from joint fit
[3] = target: T2, soluble recombinant extracellular …; test: SPR (BIACore 2000), UL16-Fc captured on anti-human IgG, RAET1E as analyte; derived from joint fit
[4] = target: T2, soluble recombinant extracellular …; test: SPR (BIACore 2000), UL16-Fc captured on anti-human IgG, RAET1E as analyte; joint global fit
[5] = target: B2; test: SPR (BIACore 2000), UL16-Fc captured on anti-human IgG, RAET1G as analyte; joint global fit
[6] = target: T1, soluble recombinant extracellular …; test: SPR (BIACore 2000), UL16-Fc captured on anti-human IgG, ULBP1 as analyte; joint global fit
[7] = target: B1; test: SPR (BIACore 2000); kon on UL16-Fc against kon on NKG2D-Fc
[8] = target: B3; test: SPR (BIACore 2000); RAET1G against ULBP2 on NKG2D-Fc
Protocol: (§1) SPR was carried out on a BIACore2000 machine. Running buffer, sensor chips and surface coupling reagents were from BIACore. Anti Human IgG (Dako) was coupled to a CM5 surface using NHS/EDC chemistry. […] Surface regeneration was using 5 μl of 10 mM HCl. […] Kinetic analysis was performed using BIAEvaluation 3.1 software.

[9] = target: T3, soluble recombinant extracellular …; test: SPR (BIACore 2000), NKG2D-Fc captured on anti-human IgG, ULBP3 as analyte; separate off-rate fit
Protocol: as §1

[10] = target: T3, soluble recombinant extracellular …; test: SPR (BIACore 2000), NKG2D-Fc captured on anti-human IgG, ULBP3 as analyte; joint global fit
Protocol: as §1

[11] = target: T1, soluble recombinant extracellular …; test: SPR (BIACore 2000), NKG2D-Fc captured on anti-human IgG, ULBP1 as analyte; joint global fit
Protocol: as §1

[12] = target: T2, soluble recombinant extracellular …; test: SPR (BIACore 2000), NKG2D-Fc captured on anti-human IgG, RAET1E as analyte; joint global fit
Protocol: as §1

[13] = target: T1, soluble recombinant extracellular …; test: SPR (BIACore 2000), NKG2D-Fc captured on anti-human IgG, ULBP1 as analyte; derived from joint fit
Protocol: as §1

[14] = target: B2; test: SPR (BIACore 2000), NKG2D-Fc captured on anti-human IgG, RAET1G as analyte; derived from joint fit
Protocol: as §1

[15] = target: T4, soluble recombinant extracellular …; test: SPR (BIACore 2000), NKG2D-Fc captured on anti-human IgG, ULBP2 as analyte; joint global fit
Protocol: as §1

[16] = target: T1, soluble recombinant extracellular …; test: SPR (BIACore 2000), NKG2D-Fc captured on anti-human IgG, ULBP1 as analyte; separate off-rate fit
Protocol: as §1

[17] = target: B2; test: SPR (BIACore 2000), NKG2D-Fc captured on anti-human IgG, RAET1G as analyte; joint global fit
Protocol: as §1

[18] = target: T3, soluble recombinant extracellular …; test: SPR (BIACore 2000), NKG2D-Fc captured on anti-human IgG, ULBP3 as analyte; derived from joint fit
Protocol: as §1

[19] = target: T4, soluble recombinant extracellular …; test: SPR (BIACore 2000), NKG2D-Fc captured on anti-human IgG, ULBP2 as analyte; derived from joint fit
Protocol: as §1

[20] = target: B2; test: SPR (BIACore 2000), NKG2D-Fc captured on anti-human IgG, RAET1G as analyte; separate off-rate fit
Protocol: as §1

[21] = target: T2, soluble recombinant extracellular …; test: SPR (BIACore 2000), NKG2D-Fc captured on anti-human IgG, RAET1E as analyte; derived from joint fit
Protocol: as §1

[22] = target: T2, soluble recombinant extracellular …; test: SPR (BIACore 2000), NKG2D-Fc captured on anti-human IgG, RAET1E as analyte; separate off-rate fit
Protocol: as §1

[23] = target: T4, soluble recombinant extracellular …; test: SPR (BIACore 2000), NKG2D-Fc captured on anti-human IgG, ULBP2 as analyte; separate off-rate fit
Protocol: as §1

With B1 the Kd [1] was 243 nM, the Kd [2] was 75.6 nM and the Kd [3] was 504 nM. For the same binder, the koff [4] was 0.00595 s⁻¹, the kon [4] was 11800 M⁻¹ s⁻¹ and the koff [5] was 0.00871 s⁻¹. It also gave a kon [5] of 115000 M⁻¹ s⁻¹, a koff [6] of 0.000597 s⁻¹ and a kon [6] of 2460 M⁻¹ s⁻¹.

In the case of B2, the “fold faster association rate for UL16 than for NKG2D” value [7] is reported as 10 fold and the “fold difference in affinity against ULBP2” value [8] is reported as 20 fold.

B3 showed a koff [9] of 0.005 s⁻¹, a koff [10] of 0.00537 s⁻¹ and a kon [10] of 2350 M⁻¹ s⁻¹. For the same binder, the koff [11] was 0.0073 s⁻¹, the kon [11] was 4360 M⁻¹ s⁻¹ and the koff [12] was 0.00292 s⁻¹. The kon [12] was 74900 M⁻¹ s⁻¹, the Kd [13] was 1680 nM and the Kd [14] was 356 nM. For the same binder, the koff [15] was 0.063 s⁻¹, the koff [16] was 0.0069 s⁻¹ and the koff [17] was 0.00374 s⁻¹. The kon [17] was 10500 M⁻¹ s⁻¹, the Kd [18] was 2290 nM and the Kd [19] was 7160 nM. The koff [20] was 0.003 s⁻¹, the Kd [21] was 39 nM and the koff [22] was 0.005 s⁻¹. The koff [23] was 0.0336 s⁻¹.
